Experiments:
[1] = target: human CXCR6[DRF] (CXC-chemokine receptor 6, wild type with the DRF motif) (human, UniProt O00574 1-342); assay: cell-based or functional assay
[2] = target: T1, human CXCR6[DRY] (DRF motif mutated to DRY) (human, UniProt O00574 1-342, DRF to DRY (F128^3.51)); assay: cell-based or functional assay
T1 sequence (looked up): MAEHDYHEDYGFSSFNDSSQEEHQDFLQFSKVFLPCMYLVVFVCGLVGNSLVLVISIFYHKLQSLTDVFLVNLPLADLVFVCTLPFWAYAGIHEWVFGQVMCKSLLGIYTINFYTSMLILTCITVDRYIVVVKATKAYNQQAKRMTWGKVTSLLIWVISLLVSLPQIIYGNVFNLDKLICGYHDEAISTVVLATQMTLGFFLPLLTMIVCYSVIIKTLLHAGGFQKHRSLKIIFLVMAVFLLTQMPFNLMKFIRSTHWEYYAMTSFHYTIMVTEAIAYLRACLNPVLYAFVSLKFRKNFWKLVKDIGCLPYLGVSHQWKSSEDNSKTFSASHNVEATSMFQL

B1: human CXCL16-Fc fusion protein (Fc fusion, UniProt Q9H2A7 30-205, looked up)
chain: NEGSVTGSCYCGKRISSDSPPSVQFMNRLRKHLRAYHRCLYYTRFQLLSWSVCGGNKDPWVQELMSCLDLKECGHAYSGIVAHQKHLLPTSPPISQASEGASSDIHTPAQMLLSTLQSTQRPTLPVGSLSSDKELTRPNETTIHTAGHSLAAGPEAGENQKQPEKNAGPTARTSAT
In the case of B1, the “adhesion of THP-1 cells expressing the receptor to immobilized CXCL16-Fc for 30 min, normalized to cells adhering to anti-human-Fc” value [1] is reported as ~4 fold, the “adhesion of THP-1 cells to immobilized CXCL16-Fc for 5, 15 and 30 min, CXCR6[DRF] cells compared to CXCR6[DRY] cells” value [1] is reported as 2 fold and the “adhesion of THP-1 cells expressing the receptor to immobilized CXCL16-Fc for 30 min, normalized to cells adhering to anti-human-Fc” value [2] is reported as ~4 fold.
